One assay concerns the target T1, GST-MCL-1ΔNΔC (Homo sapiens, UniProt Q07820).
T1 construct: MCL-1ΔNΔC (aa 170-327) and BCL-XLΔC (aa 1-212) constructs were cloned into pGEX-4T-1; made in house; host or cells: Escherichia coli BL21(DE3)
The experiment in a line: Streptavidin pull-down from anti-apoptotic protein mixture. Particulars: 1:1:1:1 mixture, 1 μM each, biotinylated SAHBs. The class given is binding. From the text:
We next explored how conversion of NOXA and BIM SAHBs to BFL-1 C55-reactive agents influenced the balance between noncovalent and covalent SAHB interactions in the context of an anti-apoptotic protein mixture. First, we generated recombinant MCL-1ΔNΔC, BCL-XLΔC and BFL-1ΔC proteins with differential N-terminal tags (GST, tagless, and His, respectively) so that each could be readily identified upon gel electrophoresis and silver stain (FIG. 13A-B).
Streptavidin Pull-down: Recombinant His-BFL-1ΔC, BCL-XLΔC (tagless) and GST-MCL-1ΔNΔC (1 μM each) were combined and reduced with 3 mM DTT in PBS for 30 min at RT, and then incubated with 1 μM biotinylated SAHBA, SAHBA-3 or vehicle for 4 h at RT. The mixtures were then combined with PBS-washed high-capacity SA agarose (Thermo Fisher Pierce) and incubated with rotation for 2 h at RT. The beads were centrifuged at 3000 rpm, washed twice with NP-40 lysis buffer (1% NP40, 50 mM Tris pH 8.0, 100 mM NaCl, 2.5 mM MgCl2), once with PBS, and then bound protein eluted by boiling in 10% SDS containing 10 mg/mL biotin. Inputs (10%) and eluates were electrophoresed on a 12% Bis-Tris gel and then subjected to silver stain and imaging.

The target of assay [1] is T2, BFL-1ΔC (Homo sapiens, UniProt Q16548, C19S/C4S).
T2 construct: cDNA encoding BFL-1ΔC (aa 1-153) was cloned into the pET19b expression vector; made in house; host or cells: Escherichia coli BL21(DE3) LOBSTR
T2 sequence (Q16548 1-153 C4S/C19S): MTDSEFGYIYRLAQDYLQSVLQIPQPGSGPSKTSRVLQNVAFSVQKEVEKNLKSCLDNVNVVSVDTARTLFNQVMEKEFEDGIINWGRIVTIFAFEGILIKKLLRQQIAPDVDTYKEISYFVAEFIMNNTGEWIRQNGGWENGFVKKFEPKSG
The experiment in a line: In vitro covalent conjugation assay. It is filed as binding. Particulars: only C55 present; oxidizing conditions. Here is the method: (§1) In Vitro Covalent Conjugation Assay: BFL-1ΔC constructs (40 μM) were combined with NOXA SAHBA or NOXA SAHBA C25S (120 μM) and 10 mM DTT in 50 mM Tris pH 8.0, 100 mM NaCl (final volume, 5 μL), and then incubated in the dark for 1 h at room temperature (RT). After this incubation in a reducing environment, the mixture was diluted 5-fold into 50 mM Tris pH 8.0, 100 mM NaCl, 12 mM GSSG and incubated in the dark for an additional 30 min at RT. The samples were then boiled in 4× loading buffer lacking DTT and electrophoresed on 12% Bis-Tris gel. The gel was rinsed with water, subjected to FITC scan (Typhoon FLA 9500, GE Healthcare) and then Coomassie staining.
(§2) For warhead-bearing SAHBs, His-BFL-1ΔC C4S/C19S protein was pretreated with 10 mM DTT in 50 mM Tris pH 8.0, 100 mM NaCl for 30 min at RT (final volume, 9.5 μL), and then combined with a 10:1 molar ratio of NOXA SAHBA or BIM SAHBA peptides bearing warheads 1-8 (final volume, 10 μL) for an additional 2 h incubation at RT. Processing for gel electrophoresis and Coomassie staining was performed as above.

For assay [2], the target named is T3, BFL-1ΔC (Homo sapiens, UniProt Q16548).
T3 construct: cDNA encoding BFL-1ΔC (aa 1-153) was cloned into the pET19b expression vector; made in house; host or cells: Escherichia coli BL21(DE3) LOBSTR
T3 sequence (Q16548 1-153): T2 sequence (Q16548 1-153 C4S/C19S) with S4C, S19C
The assay can be described thus: In vitro covalent conjugation assay. It is filed as binding. Particulars: DTT (10 mM) reduction then GSSG oxidation (12 mM); Coomassie, FITC scan. How it is done: as §1, §2

In assay [3] the target is T4, BFL-1ΔC (Homo sapiens, UniProt Q16548, C19S/C4S/C55S).
T4 construct: cDNA encoding BFL-1ΔC (aa 1-153) was cloned into the pET19b expression vector; made in house; host or cells: Escherichia coli BL21(DE3) LOBSTR
T4 sequence (Q16548 1-153 C4S/C19S/C55S): T2 sequence (Q16548 1-153 C4S/C19S) with C55S
The assay can be described thus: In vitro covalent conjugation assay. It is filed as binding. As to conditions: lacks C55; oxidizing conditions. How it is done: as §1, §2

The target of the next assay is T5, Bfl-1 (Homo sapiens, UniProt Q16548).
T5 sequence (Q16548 1-175): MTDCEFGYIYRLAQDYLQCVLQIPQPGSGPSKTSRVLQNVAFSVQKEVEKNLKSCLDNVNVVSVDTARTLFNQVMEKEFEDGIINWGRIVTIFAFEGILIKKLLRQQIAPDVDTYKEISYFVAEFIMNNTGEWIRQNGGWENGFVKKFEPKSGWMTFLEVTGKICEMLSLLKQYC
The experiment in a line: Competitive binding assay after pre-forming the Bfl-1:NOXA disulfide bond. Particulars: Bfl-1:NOXA disulfide bond pre-formed. How it is done: The functional impact of the Bfl-1:NOXA disulfide bond formation was evaluated using competitive binding assays and liposomal release assays.

Another assay addresses T6, BCL-XLΔC (Homo sapiens, UniProt Q07817).
T6 construct: MCL-1ΔNΔC (aa 170-327) and BCL-XLΔC (aa 1-212) constructs were cloned into pGEX-4T-1; GST (N, cleaved yes); made in house; host or cells: Escherichia coli BL21(DE3)
The experiment in a line: In vitro covalent conjugation assay. The class given is binding. Particulars: oxidizing conditions. Here is the method: (§3) After this incubation in a reducing environment, the mixture was diluted 5-fold into 50 mM Tris pH 8.0, 100 mM NaCl, 12 mM GSSG and incubated in the dark for an additional 30 min at RT. […] The gel was rinsed with water, subjected to FITC scan (Typhoon FLA 9500, GE Healthcare) and then Coomassie staining.
(§4) Processing for gel electrophoresis and Coomassie staining was performed as above.

Another assay deals with T7, MCL-1ΔNΔC (Homo sapiens, UniProt Q07820).
T7 construct: MCL-1ΔNΔC (aa 170-327) and BCL-XLΔC (aa 1-212) constructs were cloned into pGEX-4T-1; GST (N, cleaved yes); made in house; host or cells: Escherichia coli BL21(DE3)
The assay can be described thus: In vitro covalent conjugation assay. It is filed as binding. Particulars: oxidizing conditions. Here is the method: as §3, §4

The source of these data is US12570698B2, “Stabilized peptides for covalent binding to target protein” (Dana-Farber Cancer Institute, Inc., priority 2015, dated 2026).

Where a chain is given by its changes, count along the chain named. Bridge positions count the residues as written; N and C are the ends. Square brackets hold non-standard residues; d marks the D form. Ends that are not written are not given here. S5 = C=CCCC[C@](C)(N)C(=O)O

T1 sequence (Q07820 170-327, stated change not applied): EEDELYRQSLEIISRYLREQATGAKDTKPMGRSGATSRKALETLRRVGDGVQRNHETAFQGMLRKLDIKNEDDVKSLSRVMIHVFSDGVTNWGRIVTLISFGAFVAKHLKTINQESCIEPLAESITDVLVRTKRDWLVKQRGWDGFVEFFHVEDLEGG
T7 sequence (Q07820 170-327, stated change not applied): as above
T6 sequence (Q07817 1-212, stated change not applied): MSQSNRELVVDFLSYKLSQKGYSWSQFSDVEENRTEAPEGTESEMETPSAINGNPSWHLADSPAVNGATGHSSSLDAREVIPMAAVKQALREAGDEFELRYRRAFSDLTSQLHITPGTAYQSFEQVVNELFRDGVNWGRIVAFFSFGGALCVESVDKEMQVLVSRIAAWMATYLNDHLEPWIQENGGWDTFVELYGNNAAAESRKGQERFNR

Consider “NOXA SAHBA: stapled NOXA BH3 (aa 19-43) peptide, i, i+4 all-hydrocarbon staple substituting R31 and K35; SEQ ID NO:124 (AELEVECATQLR[S5]FGD[S5]LNFRQKLL; staple 13-17; not fully specified)”, for which the “MCL-1ΔNΔC capture in SA pull-down” value with GST-MCL-1ΔNΔC is recorded as “prominent non-covalent capture of MCL-1ΔNΔC”. In addition, the “disulfide adduct with BFL-1ΔC C4S/C19S” value with BFL-1ΔC [1] was “molecular weight shift (Coomassie stain) and FITC-labeling”. Besides, the “molecular weight shift of wild-type BFL-1ΔC (disulfide bond)” value in the assay with BFL-1ΔC [2] was “shift in the molecular weight”. Further, in the assay with BFL-1ΔC [3], the “disulfide adduct with BFL-1ΔC C4S/C19S/C55S” value is on record as “no adduct”. The “availability of the Bfl-1 binding pocket to another FITC BH3 domain” value with Bfl-1 was “significantly decreased the availability of the Bfl-1 binding pocket”. The “molecular weight shift or FITC labeling” value with BCL-XLΔC and in the assay with MCL-1ΔNΔC was “no molecular weight shift or FITC labeling” throughout.
